# Data: PMC3198426
# T1: Interferon regulatory factor 3 (IRF3), as HAVI-Fluc-IRF3 and Rluc-IRF3-Flag, Q14653
# T1 chain: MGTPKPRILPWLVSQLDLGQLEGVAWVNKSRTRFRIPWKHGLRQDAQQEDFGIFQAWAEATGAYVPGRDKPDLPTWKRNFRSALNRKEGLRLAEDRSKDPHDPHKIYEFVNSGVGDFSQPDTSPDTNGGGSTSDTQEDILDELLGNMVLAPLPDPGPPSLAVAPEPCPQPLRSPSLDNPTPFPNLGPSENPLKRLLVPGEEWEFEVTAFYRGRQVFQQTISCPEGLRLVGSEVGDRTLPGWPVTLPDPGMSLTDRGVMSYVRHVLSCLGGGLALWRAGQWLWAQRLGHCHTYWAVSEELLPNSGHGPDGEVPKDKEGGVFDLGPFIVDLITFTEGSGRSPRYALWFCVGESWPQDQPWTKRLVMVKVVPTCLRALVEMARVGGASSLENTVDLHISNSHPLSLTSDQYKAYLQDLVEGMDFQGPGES
# Legend:
# [1] = molecular target: Mitochondrial antiviral signaling protein (MAVS), as HAVI-Fluc-MAVS and Rluc-MAVS-Flag, Q7Z434; assay: pull-down; DLR-PD (dual luciferase reporter pull-down): both proteins co-expressed in HEK293; lysate in passive lysis buffer on Streptavidin MagneSphere Paramagnetic Particles in PBS, 30 m to 1 h, room temperature; two washes PBS with 1% Nonidet P 40, one with PBS; the biotinylated HAVI-tagged protein is held, Fluc and Rluc activity read on the beads; in some samples eYFP-MAVS or other activators (IRF3) or HCV …; conditions: remark: other sources report otherwise
# [2] = molecular target: MAVS cleaved by HCV NS3/4A (HAVI-Fluc-MAVS and Rluc-MAVS co-expressed with NS3/4A); assay: pull-down; DLR-PD (dual luciferase reporter pull-down): both proteins co-expressed in HEK293; lysate in passive lysis buffer on Streptavidin MagneSphere Paramagnetic Particles in PBS, 30 m to 1 h, room temperature; two washes PBS with 1% Nonidet P 40, one with PBS; the biotinylated HAVI-tagged protein is held, Fluc and Rluc activity read on the beads; in some samples eYFP-MAVS or other activators (IRF3) or HCV NS3/4A (MAVS) co-expressed
# [3] = molecular target: T1, Interferon regulatory factor 3 (IRF3), …; assay: pull-down; DLR-PD (dual luciferase reporter pull-down): both proteins co-expressed in HEK293; lysate in passive lysis buffer on Streptavidin MagneSphere Paramagnetic Particles in PBS, 30 m to 1 h, room temperature; two washes PBS with 1% Nonidet P 40, one with PBS; the biotinylated HAVI-tagged protein is held, Fluc and Rluc activity read on the beads; in some samples eYFP-MAVS or other activators (IRF3) or HCV …; conditions: remark: other sources report otherwise
Binder,activity ratio of Rluc/Fluc on the beads (Rluc/Fluc activity ratio) [1],fold of the percentage of Rluc on the beads over the three negative controls [1] [fold],percentage of Rluc on the beads compared with the cell lysate [1] [%],other results
"Mitochondrial antiviral signaling protein (MAVS), as HAVI-Fluc-MAVS and Rluc-MAVS-Flag, Q7Z434 1-540 (natural protein, here or on the partner: biotin on a specific lysine residue of the Avi tag (by co-expressed BirA), on the HAVI-Fluc copy; biotin on a specific lysine residue of the Avi tag (by co-expressed BirA), on the HAVI-Fluc copy) MPFAEDKTYKYICRNFSNFCNVDVVEILPYLPCLTARDQDRLRATCTLSGNRDTLWHLFNTLQRRPGWVEYFIAALRGCELVDLADEVASVYQSYQPRTSDRPPDPLEPPSLPAERPGPPTPAAAHSIPYNSCREKEPSYPMPVQETQAPESPGENSEQALQTLSPRAIPRNPDGGPLESSSDLAALSPLTSSGHQEQDTELGSTHTAGATSSLTPSRGPVSPSVSFQPLARSTPRASRLPGPTGSVVSTGTSFSSSSPGLASAGAAEGKQGAESDQAEPIICSSGAEAPANSLPSKVPTTLMPVNTVALKVPANPASVSTVPSKLPTSSKPPGAVPSNALTNPAPSKLPINSTRAGMVPSKVPTSMVLTKVSASTVPTDGSSRNEETPAAPTPAGATGGSSAWLDSSSENRGLGSELSKPGVLASQVDSPFSGCFEDLAISASTSLGMGPCHGPEENEYKSEGTFGIHVAENPSIQLLEGNPGPPADPDGGPRPQADRKFQEREVPCHRPSPGALWLQVAVTGVLVVTLLVVLYRRRLH",0.28,> 6,0.13,–
"Rluc-TRAF3-Flag, Q13114 1-568 (natural protein, here or on the partner: biotin on a specific lysine residue of the Avi tag (by co-expressed BirA), on the HAVI-Fluc copy) MESSKKMDSPGALQTNPPLKLHTDRSAGTPVFVPEQGGYKEKFVKTVEDKYKCEKCHLVLCSPKQTECGHRFCESCMAALLSSSSPKCTACQESIVKDKVFKDNCCKREILALQIYCRNESRGCAEQLMLGHLLVHLKNDCHFEELPCVRPDCKEKVLRKDLRDHVEKACKYREATCSHCKSQVPMIALQKHEDTDCPCVVVSCPHKCSVQTLLRSELSAHLSECVNAPSTCSFKRYGCVFQGTNQQIKAHEASSAVQHVNLLKEWSNSLEKKVSLLQNESVEKNKSIQSLHNQICSFEIEIERQKEMLRNNESKILHLQRVIDSQAEKLKELDKEIRPFRQNWEEADSMKSSVESLQNRVTELESVDKSAGQVARNTGLLESQLSRHDQMLSVHDIRLADMDLRFQVLETASYNGVLIWKIRDYKRRKQEAVMGKTLSLYSQPFYTGYFGYKMCARVYLNGDGMGKGTHLSLFFVIMRGEYDALLPWPFKQKVTLMLMDQGSSRRHLGDAFKPDPNSSSFKKPTGEMNIASGCPVFVAQTVLENGTYIKDDTIFIKVIVDTSDLPDP",2.29,> 26,1.85,–
Rluc-TRAF3-Flag (natural protein) MESSKKMDSPGALQTNPPLKLHTDRSAGTPVFVPEQGGYKEKFVKTVEDKYKCEKCHLVLCSPKQTECGHRFCESCMAALLSSSSPKCTACQESIVKDKVFKDNCCKREILALQIYCRNESRGCAEQLMLGHLLVHLKNDCHFEELPCVRPDCKEKVLRKDLRDHVEKACKYREATCSHCKSQVPMIALQKHEDTDCPCVVVSCPHKCSVQTLLRSELSAHLSECVNAPSTCSFKRYGCVFQGTNQQIKAHEASSAVQHVNLLKEWSNSLEKKVSLLQNESVEKNKSIQSLHNQICSFEIEIERQKEMLRNNESKILHLQRVIDSQAEKLKELDKEIRPFRQNWEEADSMKSSVESLQNRVTELESVDKSAGQVARNTGLLESQLSRHDQMLSVHDIRLADMDLRFQVLETASYNGVLIWKIRDYKRRKQEAVMGKTLSLYSQPFYTGYFGYKMCARVYLNGDGMGKGTHLSLFFVIMRGEYDALLPWPFKQKVTLMLMDQGSSRRHLGDAFKPDPNSSSFKKPTGEMNIASGCPVFVAQTVLENGTYIKDDTIFIKVIVDTSDLPDP,–,–,–,activity ratio of Rluc/Fluc on the beads (100 ng NS3/4A vector) (Rluc/Fluc activity ratio) [2]: 0.956
"Interferon regulatory factor 3 (IRF3), as HAVI-Fluc-IRF3 and Rluc-IRF3-Flag, Q14653 1-427 (natural protein, here or on the partner: biotin on a specific lysine residue of the Avi tag (by co-expressed BirA), on the HAVI-Fluc copy; biotin on a specific lysine residue of the Avi tag (by co-expressed BirA), on the HAVI-Fluc copy) MGTPKPRILPWLVSQLDLGQLEGVAWVNKSRTRFRIPWKHGLRQDAQQEDFGIFQAWAEATGAYVPGRDKPDLPTWKRNFRSALNRKEGLRLAEDRSKDPHDPHKIYEFVNSGVGDFSQPDTSPDTNGGGSTSDTQEDILDELLGNMVLAPLPDPGPPSLAVAPEPCPQPLRSPSLDNPTPFPNLGPSENPLKRLLVPGEEWEFEVTAFYRGRQVFQQTISCPEGLRLVGSEVGDRTLPGWPVTLPDPGMSLTDRGVMSYVRHVLSCLGGGLALWRAGQWLWAQRLGHCHTYWAVSEELLPNSGHGPDGEVPKDKEGGVFDLGPFIVDLITFTEGSGRSPRYALWFCVGESWPQDQPWTKRLVMVKVVPTCLRALVEMARVGGASSLENTVDLHISNSHPLSLTSDQYKAYLQDLVEGMDFQGPGES",–,–,–,"activity ratio of Rluc/Fluc on the beads (10 ng MAVS vector, as the sentence says) (Rluc/Fluc activity ratio) [3]: 0.01; activity ratio of Rluc/Fluc on the beads (100 ng MAVS vector) (Rluc/Fluc activity ratio) [3]: 0.75; fold increase of the IRF3 dimerization ratio (overexpressed IKKε) [3]: < 1000 fold; fold of the percentage of Rluc on the beads over the negative control (10 ng of the MAVS vector) [3]: 27 fold"
